According to FireProtDB (doi:10.1002/pro.5560010709):

B1: Ribonuclease pancreatic, P61823 (parent)
chain: MALKSLVLLSLLVLVLLLVRVQPSLGKETAAAKFERQHMDSSTSAASSSNYCNQMMKSRNLTKDRCKPVNTFVHESLADVQAVCSQKNVACKNGQTNCYQSYSTMSITDCRETGSSKYPNCAYKTTQANKHIIVACEGNPYVPVHFDASV

Variants of: B1
Conditions: Bos taurus, pH 4.2, Thermal, CD, Sodium acetate 0.01 M, NaCl 0.1 M, reversible: yes, structure 1RTB, whole UniProt chain shown; for ddG of mutation (higher = less stable) / heat capacity change of unfolding: 56.2 °C

Variant | ddG of mutation (higher = less stable) | heat capacity change of unfolding | Tm | change of melting temperature, mutant - wild type (higher = more stable)
P140G | 2.8 kcal/mol | 2.2 kcal/mol/K | 45.5 °C | -10.5 °C
P140A | 3.2 kcal/mol | 2.2 kcal/mol/K | 45.5 °C | -10.5 °C
P119S | 2.1 kcal/mol | 2.2 kcal/mol/K | 47.5 °C | -8.5 °C
P119A | 2.7 kcal/mol | 2.2 kcal/mol/K | 46.5 °C | -9.5 °C
P119A P140G | 4.2 kcal/mol | 2.2 kcal/mol/K | 36 °C | -20 °C
